What is called Kd is the free concentration of one partner at which half of the binding sites on the other are occupied at equilibrium, for simple one-to-one binding.

The target in series [1] is T1, monomeric C-reactive protein (mCRP) (Homo sapiens, UniProt P02741 P02741:19-224).
T1 sequence: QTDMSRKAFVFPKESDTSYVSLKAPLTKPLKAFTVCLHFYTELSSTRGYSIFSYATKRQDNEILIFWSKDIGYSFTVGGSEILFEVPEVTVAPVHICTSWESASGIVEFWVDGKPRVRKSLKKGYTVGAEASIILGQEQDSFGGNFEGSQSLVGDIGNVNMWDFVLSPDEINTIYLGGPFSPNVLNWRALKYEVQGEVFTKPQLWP
The series is described as follows: SPR; mCRP immobilized on CM4, pCRP reference cell; 1:1 Langmuir; ka 4.242E+03 1/Ms, kd 6.41E-04 1/s; aptamer binding buffer pH 7.4. The procedure: On the contrary the aptamer was very stable regeneration steps and therefore a multicycle kinetics analysis was performed for the evaluation of reaction kinetics of the aptamer. Pentameric CRP is immobilized in the reference flow cell and mCRP in the active cell at a low immobilization level (70 RU) to achieve an optimal kinetic analysis on CM4 biosensor chips. The kinetic analysis was performed with increasing concentrations of aptamer AmC2 (0-500 nM) applying for 200 sec of association and 200 sec dissociation at flow rate of 300 μl/min. A regeneration step of 120 sec using 1 M NaOH was applied between the injections of different concentrations. The Biacore evaluation software was used in the analysis for estimation of affinity rate constant by fitting the obtained binding sensogram using standard mathematical 1:1 Langmuir model.
The kinetic parameters of the antibody 3H12 and aptamer AmC2 were evaluated using the inbuilt kinetics modules of the Biacore T200 SPR (FIG. 2). […] The strength of the binding interaction between the ligand and target analyte can be measured based on the affinity constant value KD. […] The binding kinetics of the ligand to the target analyte is a time dependent interaction and in SPR this is measured as the association and dissociation constants (ka and kd). […]

Series [2] concerns the target T1, monomeric C-reactive protein (mCRP). The series is described as follows: SPR; 200 nM aptamer; 75 mM HEPES, 0.15 M NaCl pH 7.4. How it is done:
Regeneration of the CM4 chip flow cells was achieved by applying 10 mM NaOH with 120 sec followed by several washing steps with 1× aptamer binding buffer. SPR binding concentrations were obtained as a resonance unit RU (1 RU=1 pg/mm² of the sensor surface) by calculating the binding units of antibody/aptamer and mCRP and correcting for the background signal observed in the reference channel.
For orientation: Surface plasmon resonance follows binding to a sensor surface in real time, without labels.

B1: AmC2 (ssDNA)
DNA: GCACCAGCATATTCGATTGTGGCGGGTTGTGAAGGGTGGAGTATGGTCGTGTTGGTTGGGCTAGTAGGTGCATCAG
The molecule B1 came in with a Kd in series [1] of 151 nM.

B2: AmC4 (ssDNA)
DNA: GCACCAGCATATTCGATTGGGAGGTGTGAACGTTATGTGGTAGAGAGATGGGTGGTGGGGCTAGTAGGTGCATCAG
In the case of B2, the binding result in series [2] is reported as “binds”.

B3: AmC3 (ssDNA)
DNA: GCACCAGCATATTCGATTGGGAGCGCGGGGGAGAGTAGTGGGGAACGGTGGAGAGTTGGGCTAGTAGGTGCATCAG
Regarding B3, the binding result in series [2] is on record as “binds”.
